Data on two molecules can be found in article PMC10976854.

Values joined by “and” are separate entries in the source; they are usually repeats but may differ in a detail not shown here. Equal values may be shown once.

The target in test [1] is collagenase-cleaved xZP2-N2N3 (Xenopus). The test is described as follows: native MS.
Test [2] has the same target. The test is described as follows: SEC-MALS.
The target in test [3] is Xenopus egg exudate-cleaved xZP2-N2N3 (Xenopus). The test is described as follows: native MS.
Test [4] shares this target. The test is described as follows: SEC-MALS.

B1: collagenase-cleaved xZP2-N2N3 (domain or fragment)
chain 1: DEPGSSVVTCTKDSMTVRIPRTLSGFDDEIP
chain 2: VAAPSFWDLEVKFTGQTSLLGMSEARQRGYQFSSDPYYLTVQASYSAFGLNVFNLENQRLYVADLRLVSQFGSPRISIDTPMICARDSPSCNSTHATVLIPFFGGVLTGINVNSVNIQLSSYSLQQHGITLDSRNGYRLYIKRSTLKGDRNDVLVLTFIYYGKTVPMLISLVCSGGSN
modifications: not checked
In the case of B1, the stoichiometry N in test [1] and in test [2] was 4 in each case.

B2: Xenopus egg exudate-cleaved xZP2-N2N3 (domain or fragment)
chain 1: B1 chain 1
chain 2: B1 chain 2
modifications: not checked
Turning to B2, the stoichiometry N was 2 and 4 in test [3]; 4 and 2 in test [4].
